Laboratory results as given in the Human Domainome abundance scans (Beltran et al. 2025).
± gives the uncertainty stated by the source.

B1: Ras GTPase-activating protein 1, residues 281 to 341; numbered along this chain, P20936 (parent)
chain: RRRVRAILPYTKVPDTDEISFLKGDMFIVHNELEDGWMWVTNLRTDEQGLIVEDLVEEVGR

Variants of: B1
Assay: abundance fitness (aPCA) (normalised: wild type 0, dead -1); higher = more abundant; growth selection in yeast, the domain comes from the species named
Settings: Homo sapiens

Variant | abundance fitness
RRRVRAILPYTKVPDTDEISFLKGDMFIVFNELEDGWMWVTNLRTDEQGLIVEDLVEEVGR [H30F] | -0.39 ± 0.033
RRRVRAILPYTKVPDTDEISFLKGDMFIVANELEDGWMWVTNLRTDEQGLIVEDLVEEVGR [H30A] | -0.4 ± 0.033
RRRVRAILPYTKVPDTDEISFLKGDMFIVCNELEDGWMWVTNLRTDEQGLIVEDLVEEVGR [H30C] | -0.362 ± 0.028
RRRVRAILPYTKVPDTDEISFLKGDMFIVENELEDGWMWVTNLRTDEQGLIVEDLVEEVGR [H30E] | 0.008 ± 0.077
RRRVRAILPYTKVPDTDEISFLKGDMFIVKNELEDGWMWVTNLRTDEQGLIVEDLVEEVGR [H30K] | -0.151 ± 0.065
RRRVRAILPYTKVPDTDEISFLKGDMFIVLNELEDGWMWVTNLRTDEQGLIVEDLVEEVGR [H30L] | -0.085 ± 0.03
RRRVRAILPYTKVPDTDEISFLKGDMFIVDNELEDGWMWVTNLRTDEQGLIVEDLVEEVGR [H30D] | -0.122 ± 0.031
RRRVRAILPYTKVPDTDEISFLKGDMFIVGNELEDGWMWVTNLRTDEQGLIVEDLVEEVGR [H30G] | -0.444 ± 0.028
RRRVRAILPYTKVPDTDEISFLKGDMFIVINELEDGWMWVTNLRTDEQGLIVEDLVEEVGR [H30I] | -0.163 ± 0.03
RRRVRAILPYTKVPDTDEISFLKGDMFIFHNELEDGWMWVTNLRTDEQGLIVEDLVEEVGR [V29F] | -0.913 ± 0.055
RRRVRAILPYTKVPDTDEISFLKGDMFIEHNELEDGWMWVTNLRTDEQGLIVEDLVEEVGR [V29E] | -0.873 ± 0.11
RRRVRAILPYTKVPDTDEISFLKGDMFIGHNELEDGWMWVTNLRTDEQGLIVEDLVEEVGR [V29G] | -0.861 ± 0.039
RRRVRAILPYTKVPDTDEISFLKGDMFIHHNELEDGWMWVTNLRTDEQGLIVEDLVEEVGR [V29H] | -0.881 ± 0.062
RRRVRAILPYTKVPDTDEISFLKGDMFIWHNELEDGWMWVTNLRTDEQGLIVEDLVEEVGR [V29W] | -0.951 ± 0.13
RRRVRAILPYTKVPDTDEISFLKGDMFINHNELEDGWMWVTNLRTDEQGLIVEDLVEEVGR [V29N] | -0.823 ± 0.049
RRRVRAILPYTKVPDTDEISFLKGDMFIMHNELEDGWMWVTNLRTDEQGLIVEDLVEEVGR [V29M] | -0.644 ± 0.1
RRRVRAILPYTKVPDTDEISFLKGDMFIAHNELEDGWMWVTNLRTDEQGLIVEDLVEEVGR [V29A] | -0.694 ± 0.041
RRRVRAILPYTKVPDTDEISFLKGDMFIYHNELEDGWMWVTNLRTDEQGLIVEDLVEEVGR [V29Y] | -0.879 ± 0.049
RRRVRAILPYTKVPDTDEISFLKGDMFIIHNELEDGWMWVTNLRTDEQGLIVEDLVEEVGR [V29I] | -0.057 ± 0.029
RRRVRAILPYTKVPDTDEISFLKGDMFIRHNELEDGWMWVTNLRTDEQGLIVEDLVEEVGR [V29R] | -0.636 ± 0.045
RRRVRAILPYTKVPDTDEISFLKGDMFISHNELEDGWMWVTNLRTDEQGLIVEDLVEEVGR [V29S] | -0.866 ± 0.043
RRRVRAILPYTKVPDTDEISFLKGDMFIPHNELEDGWMWVTNLRTDEQGLIVEDLVEEVGR [V29P] | -0.959 ± 0.079

Variant | abundance fitness
RRRVRAILPYTKVPDTDEISFLKGDMFICHNELEDGWMWVTNLRTDEQGLIVEDLVEEVGR [V29C] | -0.363 ± 0.029
RRRVRAILPYTKVPDTDEISFLKGDMFIDHNELEDGWMWVTNLRTDEQGLIVEDLVEEVGR [V29D] | -0.764 ± 0.043
RRRVRAILPYTKVPDTDEISFLKGDMFITHNELEDGWMWVTNLRTDEQGLIVEDLVEEVGR [V29T] | -0.879 ± 0.059
RRRVRAILPYTKVPDTDEISFLKGDMFIQHNELEDGWMWVTNLRTDEQGLIVEDLVEEVGR [V29Q] | -0.954 ± 0.16
RRRVRAILPYTKVPDTDEISFLKGDMFILHNELEDGWMWVTNLRTDEQGLIVEDLVEEVGR [V29L] | -0.473 ± 0.034
RRRVRAILPYTKVPDTDEISFLKGDMVIVHNELEDGWMWVTNLRTDEQGLIVEDLVEEVGR [F27V] | -0.901 ± 0.045
RRRVRAILPYTKVPDTDEISFLKGDMRIVHNELEDGWMWVTNLRTDEQGLIVEDLVEEVGR [F27R] | -0.905 ± 0.054
RRRVRAILPYTKVPDTDEISFLKGDMQIVHNELEDGWMWVTNLRTDEQGLIVEDLVEEVGR [F27Q] | -0.815 ± 0.12
RRRVRAILPYTKVPDTDEISFLKGDMHIVHNELEDGWMWVTNLRTDEQGLIVEDLVEEVGR [F27H] | -0.724 ± 0.05
RRRVRAILPYTKVPDTDEISFLKGDMPIVHNELEDGWMWVTNLRTDEQGLIVEDLVEEVGR [F27P] | -0.74 ± 0.081
RRRVRAILPYTKVPDTDEISFLKGDMSIVHNELEDGWMWVTNLRTDEQGLIVEDLVEEVGR [F27S] | -0.798 ± 0.036
RRRVRAILPYTKVPDTDEISFLKGDMWIVHNELEDGWMWVTNLRTDEQGLIVEDLVEEVGR [F27W] | -0.957 ± 0.1
RRRVRAILPYTKVPDTDEISFLKGDMTIVHNELEDGWMWVTNLRTDEQGLIVEDLVEEVGR [F27T] | -0.914 ± 0.069
RRRVRAILPYTKVPDTDEISFLKGDMLIVHNELEDGWMWVTNLRTDEQGLIVEDLVEEVGR [F27L] | -0.241 ± 0.029
RRRVRAILPYTKVPDTDEISFLKGDMKIVHNELEDGWMWVTNLRTDEQGLIVEDLVEEVGR [F27K] | -0.965 ± 0.13
RRRVRAILPYTKVPDTDEISFLKGDMCIVHNELEDGWMWVTNLRTDEQGLIVEDLVEEVGR [F27C] | -0.485 ± 0.029
RRRVRAILPYTKVPDTDEISFLKGDMIIVHNELEDGWMWVTNLRTDEQGLIVEDLVEEVGR [F27I] | -0.864 ± 0.044
RRRVRAILPYTKVPDTDEISFLKGDMGIVHNELEDGWMWVTNLRTDEQGLIVEDLVEEVGR [F27G] | -0.82 ± 0.04
RRRVRAILPYTKVPDTDEISFLKGDMMIVHNELEDGWMWVTNLRTDEQGLIVEDLVEEVGR [F27M] | -0.108 ± 0.07
RRRVRAILPYTKVPDTDEISFLKGDMYIVHNELEDGWMWVTNLRTDEQGLIVEDLVEEVGR [F27Y] | -0.834 ± 0.045
RRRVRAILPYTKVPDTDEISFLKGDMAIVHNELEDGWMWVTNLRTDEQGLIVEDLVEEVGR [F27A] | -0.901 ± 0.06
